{
  "source": "patent US20040166530A1",
  "about": "(BAYLOR COLLEGE OF MEDICINE, published 2004)",
  "molecules": {"B1": {"name": "Cdc34 (enzyme, S. cerevisiae, UniProt P14682 1-295, looked up)", "chain": "MSSRKSTASSLLLRQYRELTDPKKAIPSFHIELEDDSNIFTWNIGVMVLNEDSIYHGGFFKAQMRFPEDFPFSPPQFRFTPAIYHPNVYRDGRLCISILHQSGDPMTDEPDAETWSPVQTVESVLISIVSLLEDPNINSPANVDAAVDYRKNPEQYKQRVKMEVERSKQDIPKGFIMPTSESAYISQSKLDEPESNKDMADNFWYDSDLDDDENGSVILQDDDYDDGNNHIPFEDDDVYNYNDNDDDDERIEFEDDDDDDDDSIDNDSVMDRKQPHKAEDESEDVEDVERVSKKI", "notes": "Untagged baculovirus form in the assembly experiments; also called E2 Cdc34"}, "B2": {"name": "phosphorylated Cln1HA (protein, S. cerevisiae, UniProt P20437 1-546, looked up, not shown: small tags and cut ends)", "chain": "MNHSEVKTGLIVTAKQTYYPIELSNAELLTHYETIQEYHEEISQNVLVQSSKTKPDIKLIDQQPEMNPHQTREAIVTFLYQLSVMTRVSNGIFFHAVRFYDRYCSKRVVLKDQAKLVVGTCLWLAAKTWGGCNHIINNVSIPTGGRFYGPNPRARIPRLSELVHYCGGSDLFDESMFIQMERHILDTLNWDVYEPMINDYILNVDENCLIQYELYKNQLQNNNSNGKEWSCKRKSQSSDDSDATVEEHISSSPQSTGLDGDTTTMDEDEELNSKIKLINLKRFLIDLSCWQYNLLKFELYEICNGMFSIINKFTNQDQGPFLSMPIGNDINSNTQTQVFSIIINGIVNSPPSLVEVYKEQYGIVPFILQVKDYNLELQKKLQLASTIDLTRKIAVNSRYFDQNASSSSVSSPSTYSSGTNYTPMRNFSAQSDNSVFSTTNIDHSSPITPHMYTFNQFKNESACDSAISVSSLPNQTQNGNMPLSSNYQNMMLEERNKENRIPNSSSAEIPQRAKFMTTGIFQNTGELTNRASSISLSLRNHNSSQL", "modifications": "autophosphorylated in Cln1/Cdc28 complexes with ATP; sites not stated"}, "B3": {"name": "phosphorylated Cln2HA (protein, S. cerevisiae, UniProt P20438 1-545, looked up, not shown: small tags and cut ends)", "chain": "MASAEPRPRMGLVINAKPDYYPIELSNAELLSHFEMLQEYHQEISTNVIAQSCKFKPNPKLIDQQPEMNPVETRSNIITFLFELSVVTRVTNGIFFHSVRLYDRYCSKRIVLRDQAKLVVATCLWLAAKTWGGCNHIINNVVIPTGGRFYGPNPRARIPRLSELVHYCGDGQVFDESMFLQMERHILDTLNWNIYEPMINDYVLNVDENCLMQYELYENQVTYDKQCSEKRQSQLSQDSDATVDERPYQNEEEEEEDLKLKIKLINLKKFLIDVSAWQYDLLRYELFEVSHGIFSIINQFTNQDHGPFLMTPMTSESKNGEILSTLMNGIVSIPNSLMEVYKTVNGVLPFINQVKEYHLDLQRKLQIASNLNISRKLTISTPSCSFENSNSTSIPSPASSSQSHTPMRNMSSLSDNSVFSRNMEQSSPITPSMYQFGQQQSNSICGSTVSVNSLVNTNNKQRIYEQITGPNSNNATNDYIDLLNLNESNKENQNPATAHYLNGGPPKTSFINHGMFPSPTGTINSGKSSSASSLISFGMGNTQVI", "modifications": "autophosphorylated in Cln2/Cdc28 complexes with ATP; sites not stated"}, "B4": {"name": "phosphorylated Sic1 (other, S. cerevisiae, UniProt P38634 1-284, looked up)", "chain": "MTPSTPPRSRGTRYLAQPSGNTSSSALMQGQKTPQKPSQNLVPVTPSTTKSFKNAPLLAPPNSNMGMTSPFNGLTSPQRSPFPKSSVKRTLFQFESHDNGTVREEQEPLGRVNRILFPTQQNVDIDAAEEEEEGEVLLPPSRPTSARQLHLSLERDEFDQTHRKKIIKDVPGTPSDKVITFELAKNWNNNSPKNDARSQESEDEEDIIINPVRVGKNPFASDELVTQEIRNERKRAMLRENPDIEDVITYVNKKGEVVEKRRLTDEEKRRFKPKALFQSRDQEH", "modifications": "phosphorylated in vitro by Gst-Cdc28HA/Cln1HA/Cks1 with ATP; sites not stated", "notes": "also called Cln1/Cdc28-phosphorylated Sic1; phosphorylated Sic1 complexes"}, "B5": {"name": "Cdc4 (other, S. cerevisiae, UniProt P07834 1-779, looked up)", "chain": "MGSFPLAEFPLRDIPVPYSYRVSGGIASSGSVTALVTAAGTHRNSSTAKTVETEDGEEDIDEYQRKRAAGSGESTPERSDFKRVKHDNHKTLHPVNLQNTGAASVDNDGLHNLTDISNDAEKLLMSVDDGSAAPSTLSVNMGVASHNVAAPTTVNAATITGSDVSNNVNSATINNPMEEGALPLSPTASSPGTTTPLAKTTKTINNNNNIADLIESKDSIISPEYLSDEIFSAINNNLPHAYFKNLLFRLVANMDRSELSDLGTLIKDNLKRDLITSLPFEISLKIFNYLQFEDIINSLGVSQNWNKIIRKSTSLWKKLLISENFVSPKGFNSLNLKLSQKYPKLSQQDRLRLSFLENIFILKNWYNPKFVPQRTTLRGHMTSVITCLQFEDNYVITGADDKMIRVYDSINKKFLLQLSGHDGGVWALKYAHGGILVSGSTDRTVRVWDIKKGCCTHVFKGHNSTVRCLDIVEYKNIKYIVTGSRDNTLHVWKLPKESSVPDHGEEHDYPLVFHTPEENPYFVGVLRGHMASVRTVSGHGNIVVSGSYDNTLIVWDVAQMKCLYILSGHTDRIYSTIYDHERKRCISASMDTTIRIWDLENIWNNGECSYATNSASPCAKILGAMYTLQGHTALVGLLRLSDKFLVSAAADGSIRGWDANDYSRKFSYHHTNLSAITTFYVSDNILVSGSENQFNIYNLRSGKLVHANILKDADQIWSVNFKGKTLVAAVEKDGQSFLEILDFSKASKINYVSNPVNSSSSSLESISTSLGLTRTTIIP", "notes": "Untagged, expressed from baculovirus in insect cells"}},
  "key": {"[1]": {"target": "phosphorylated IκB peptide (residues 21-41, phosphorylated on Ser-32 and Ser-36)", "sequence (peptide, as listed by the source)": "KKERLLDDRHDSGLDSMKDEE", "assay": "HeLa lysate on IκB peptide beads, anti-Skp1 immunoblot (FIG. 8)"}, "[2]": {"target": "T1, Myc-tagged Cdc53 (Cdc53^M) (S. cerevisiae, UniProt Q12018 1-815)", "T1 construct": "Expressed from baculovirus in insect cells; not shown: N-terminal Myc tag", "T1 sequence (looked up)": "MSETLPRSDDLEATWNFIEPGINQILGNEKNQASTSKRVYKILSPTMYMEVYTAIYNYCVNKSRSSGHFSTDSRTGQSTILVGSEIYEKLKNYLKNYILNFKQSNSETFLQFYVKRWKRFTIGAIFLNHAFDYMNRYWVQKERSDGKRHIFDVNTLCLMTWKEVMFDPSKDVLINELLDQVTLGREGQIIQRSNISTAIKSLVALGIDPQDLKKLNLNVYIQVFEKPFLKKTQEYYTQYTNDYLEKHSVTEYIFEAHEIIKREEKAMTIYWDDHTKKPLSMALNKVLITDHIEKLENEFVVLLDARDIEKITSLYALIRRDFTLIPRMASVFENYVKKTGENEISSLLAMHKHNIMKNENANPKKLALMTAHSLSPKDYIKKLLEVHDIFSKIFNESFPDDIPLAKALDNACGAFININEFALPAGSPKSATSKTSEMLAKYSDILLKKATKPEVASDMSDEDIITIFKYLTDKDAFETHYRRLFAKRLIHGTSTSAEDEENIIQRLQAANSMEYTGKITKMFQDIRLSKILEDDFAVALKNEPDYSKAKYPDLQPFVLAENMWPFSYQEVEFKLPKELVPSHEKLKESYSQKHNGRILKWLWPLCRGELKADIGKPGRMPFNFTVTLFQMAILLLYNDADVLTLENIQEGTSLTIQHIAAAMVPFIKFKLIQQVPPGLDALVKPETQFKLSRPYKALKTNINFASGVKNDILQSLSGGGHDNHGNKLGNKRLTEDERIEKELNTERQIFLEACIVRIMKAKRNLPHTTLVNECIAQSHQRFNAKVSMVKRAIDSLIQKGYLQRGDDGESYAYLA", "assay": "anti-Myc immunoprecipitation from co-infected insect cells, immunoblot (FIG. 1A)", "text": "Insect cells were co-infected with various combinations of baculoviruses expressing Myc-tagged Cdc53 (Cdc53^M), Cdc34, Cdc4, and Skp1. Anti-Myc immune complexes from lysates of these infected cells were immunoblotted to identify associated proteins (See, FIG. 1A). […] Thus, one function of Skp1 is to facilitate association of Cdc53 with Cdc4. […] Furthermore, it appeared that Cdc53 can simultaneously associate with both Cdc34 and Skp1, as the association of Gst-Skp1 with Cdc34 is enhanced in the presence of Cdc53^M (See, FIG. 1C).\nFor recombinant protein expression and assembly of complexes, 4×10⁵ insect cells (Hi5, Invitrogen) were infected with the indicated virus combinations for 40 hours. These combinations included baculoviruses expressing Myc-tagged Cdc53 (Cdc53^M), Cdc34, Cdc4, and Skp1. Cells were then harvested and disrupted in lysis buffer (50 mM Tris-HCl (pH 7.5), 150 mM NaCl, 0.5% Nonidet P40, 10 mM NaF, 10 mM β-glycerol phosphate, 1 mM PMSF, and 5 μg/ml each leupeptin, antipain, and aprotinin). For isolation of protein complexes, typically about 3 ml of lysis buffer was used per 0.5×10⁸ cells.\nTo examine the assembly of recombinant yeast proteins, 0.4 ml lysate were typically derived from 2×10⁶ cells. […]"}, "[3]": {"target": "Cdc4/Skp1^F complex (S. cerevisiae) (UniProt P52286)", "sequence (P52286 whole entry, one chain of several)": "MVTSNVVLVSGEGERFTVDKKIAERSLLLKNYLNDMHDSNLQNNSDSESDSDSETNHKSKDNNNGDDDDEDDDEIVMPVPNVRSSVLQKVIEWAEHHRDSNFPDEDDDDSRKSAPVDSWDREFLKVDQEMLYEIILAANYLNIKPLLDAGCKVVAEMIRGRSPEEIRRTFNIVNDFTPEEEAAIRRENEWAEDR", "assay": "binding of 32P-labeled Cln kinase complexes to anti-Skp1^F immune complexes, autoradiography (FIG. 5A)"}, "[4]": {"target": "T2, Grr1/Skp1^F/Cdc53 complex (S. cerevisiae, UniProt P24814 1-1151; P52286 1-194; Q12018 1-815)", "T2 construct": "also called Cdc53/Skp1/Grr1 complex; Grr1/Skp1/Cdc53 complex; not shown: N-terminal His6-G10 (T7 gene 10) tag; N-terminal Flag tag; N-terminal Myc tag", "T2 sequence (P24814 whole entry, chain 1 of 2)": "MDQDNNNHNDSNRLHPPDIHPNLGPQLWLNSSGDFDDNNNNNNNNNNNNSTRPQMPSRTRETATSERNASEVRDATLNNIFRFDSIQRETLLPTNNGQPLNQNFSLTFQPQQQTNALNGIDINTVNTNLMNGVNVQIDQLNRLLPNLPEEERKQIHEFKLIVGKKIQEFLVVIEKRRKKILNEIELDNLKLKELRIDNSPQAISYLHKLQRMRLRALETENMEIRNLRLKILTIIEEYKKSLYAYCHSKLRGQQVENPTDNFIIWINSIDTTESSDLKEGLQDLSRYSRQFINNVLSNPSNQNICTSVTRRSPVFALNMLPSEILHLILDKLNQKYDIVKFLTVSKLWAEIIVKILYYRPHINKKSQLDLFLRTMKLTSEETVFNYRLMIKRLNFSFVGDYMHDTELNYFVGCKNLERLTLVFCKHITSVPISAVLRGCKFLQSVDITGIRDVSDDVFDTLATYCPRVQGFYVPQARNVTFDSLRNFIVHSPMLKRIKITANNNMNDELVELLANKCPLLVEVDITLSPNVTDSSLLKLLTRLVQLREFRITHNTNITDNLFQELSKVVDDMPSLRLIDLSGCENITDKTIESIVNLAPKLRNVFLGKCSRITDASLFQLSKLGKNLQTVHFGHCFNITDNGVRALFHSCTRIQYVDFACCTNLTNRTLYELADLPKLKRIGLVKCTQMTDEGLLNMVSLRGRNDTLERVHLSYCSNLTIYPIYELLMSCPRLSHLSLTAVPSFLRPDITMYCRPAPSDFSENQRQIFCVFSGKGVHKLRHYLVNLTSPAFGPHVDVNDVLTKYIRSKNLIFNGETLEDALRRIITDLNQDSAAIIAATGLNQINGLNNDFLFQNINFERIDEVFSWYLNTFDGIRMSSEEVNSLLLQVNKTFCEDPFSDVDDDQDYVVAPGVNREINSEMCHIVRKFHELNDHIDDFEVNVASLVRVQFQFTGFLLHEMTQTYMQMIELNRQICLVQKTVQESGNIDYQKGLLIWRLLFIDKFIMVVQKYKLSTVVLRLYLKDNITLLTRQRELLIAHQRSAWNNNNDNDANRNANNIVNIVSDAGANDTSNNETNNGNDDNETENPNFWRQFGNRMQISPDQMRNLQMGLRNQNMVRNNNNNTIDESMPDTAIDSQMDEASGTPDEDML", "T2 sequence (P52286 whole entry, chain 2 of 2)": "as the sequence (P52286 whole entry, one chain of several) above", "assay": "binding of 32P-labeled Cln kinase complexes to anti-Skp1^F immune complexes, autoradiography (FIG. 5A)"}, "[5]": {"target": "T2, Grr1/Skp1^F/Cdc53 complex", "assay": "binding of 32P-labeled Sic1 complexes to anti-Skp1^F immune complexes, autoradiography (FIG. 4B)", "procedure": "These experiments were conducted as described above, with the exception being that Grr1 was substituted for Cdc4 (approximately 100 ng). Proteins were separated by SDS-PAGE, and blotted with anti-Skp1 anti-Myc to detect Grr1G10 and Cdc53^M, with anti-Skp1 antibodies.\nIn this Figure, lanes 2-5 contain anti-Skp1^F immune complexes derived from insect cells infected with the indicated baculovirus combinations were used for binding reactions with ³²P-labeled Sic1 complexes. Ten percent of the input Sic1 complex (lane 1) was included as a control. The presence of Cdc4, Skp1, Cdc53, and Grr1 was verified by immunoblotting."}, "[6]": {"target": "Flag-Cdc4 (Cdc4^F) (S. cerevisiae) (UniProt P07834)", "assay": "binding reaction with anti-Flag (Cdc4^F) immune complexes with increasing Skp1, immunoblot (FIG. 2D)"}, "[7]": {"target": "T1, Myc-tagged Cdc53 (Cdc53^M)", "assay": "anti-Cdc53^M immune complexes from insect cells, immunoblot (FIG. 2C)", "procedure": "To examine the assembly of recombinant yeast proteins, 0.4 ml lysate were typically derived from 2×10⁶ cells. […] Immunopurification was performed by incubating the lysates at 4° C. for 2 hours with 4 μg of the anti-Myc or anti-G10 antibody and 8 μl of Protein A-Sepharose, or with 8 μl of immobilized anti-Flag antibodies (Kodak; See, Example 1). Immune complexes were washed three times with 1 ml of lysis butter prior to SDS-PAGE.\nAssociated proteins were then washed three times with 1 ml of lysis buffer prior to SDS-PAGE and immunoblotting, were performed as described above.\nAs shown in this Figure, phosphorylated Sic1 efficiently associates with Cdc53/Skp1/Cdc4 complexes, and this association is dependent upon the presence of Skp1 (See, FIG. 2C, lanes 6 and 8). Typically, 10-20% of the input phosphorylated Sic1 was bound at about 20 nM Sic1. […] Consistent with the results in FIG. 1, the level of Cdc4 found in immune complexes lacking Skp1 were >10-fold lower than that found in the presence of Skp1."}},
  "data": [
    {"molecule": "Skp1 (in HeLa cell lysates) (from UniProt P63208 2-163)", "values": [
      {"measurement": "percent of the Skp1 in the extracts that can associate with IκB", "setting": "[1]", "result": 1, "unit": "%"}
    ]},
    {"molecule": "B1", "values": [
      {"measurement": "binding result", "setting": "[2]", "result": "binds"}
    ]},
    {"molecule": "B2", "values": [
      {"measurement": "percent of the input associated (% of the input)", "setting": "[3]", "result": 6},
      {"measurement": "percent of the input associated (% of the input)", "setting": "[4]", "result": 40}
    ]},
    {"molecule": "B3", "values": [
      {"measurement": "percent of the input associated (% of the input)", "setting": "[3]", "result": 6},
      {"measurement": "percent of the input associated (% of the input)", "setting": "[4]", "result": 40}
    ]},
    {"molecule": "B4", "values": [
      {"measurement": "binding result", "setting": "[5]", "result": "no binding"},
      {"measurement": "fold stimulation by Skp1 of the association of Sic1 with Cdc4", "setting": "[6]", "result": 5, "unit": "fold"}
    ]},
    {"molecule": "B5", "values": [
      {"measurement": "fold lower level of Cdc4 in immune complexes lacking Skp1 than in the presence of Skp1", "setting": "[7]", "result": "> 10", "unit": "fold"}
    ]}
  ]
}
